Experimental findings from US20210231650A1 are described below.

The target of this assay is RGD peptide. Briefly: single-molecule conductance, electrodes carrying RGD peptide.

The substance αvβ3 integrin (receptor) registered a single-molecule conductance peak G of 0.3 nS.
